What was measured:
[1] = molecular target: mm PCDH24 EC1-2Fc (mouse); test: SPR; OpenSPR (Nicoya); mm PCDH24 EC1-2Fc immobilised on a Protein A sensor chip (>800 RU); mm CDHR5 EC1-2 injected at 2 to 23.5 uM; 20 mM Tris HCl pH 7.5, 150 mM NaCl, 50 mM KCl, 2 mM CaCl2, 0.5 mM TCEP, 1% BSA; 20 uL/min; kinetic fit, 1:1 model
[2] = molecular target: the molecule itself; test: bead aggregation assay; homophilic; Protein G Dynabeads coated with one Fc fusion captured from concentrated serum-free medium and washed; 50 mM Tris pH 7.5, 100 mM NaCl, 10 mM KCl, 0.2% BSA, 2 mM CaCl2; 60 min on a depression slide, then rocking 1 to 2 min
[3] = molecular target: the molecule itself; test: crystal structure; contacts between copies of one fragment in the crystal (asymmetric unit or symmetry mates); vapor diffusion at 4 °C

Molecule mm CDHR5 EC1-2 (domain or fragment) has a Kd [1] of 16 µM.

B1: hs PCDH24 EC1-MAD10Fc (Fc fusion, human)
chain: NVAPKFLANMTSVILPEDLPVGAQAFWLVAEDQDNDPLTYGMSGPNAYFFAVTPKTGEVKLASALDYETLYTFKVTISVSDPYIQVQREMLVIVEDRNDNAPVFQNTAFSTSINETLPVGSVVFSVLAVDKDMGSAGMVVYSIEKVIPSTGDSEHLFRILANGSIVLNGSLSYNNKSAFYQLELKACDLGGMYHNTFTIQCSLPVFLSISVVDQPDLDPQFVREFYSASVAEDAAKGTSVLTVEAVDGDKGINDPVIYSISYSTRPGWFDIGADGVIRVNGSLDREQLLEADEEVQLQVTATETHLNIYGQEAKVSIWVTVRVMDVNDHKPEFYNCSLPACTFTPEEAQVNFTGYVDEHASPRIPIDDLTMVVYDPDKGSNGTFLLSLGGPDAEAFSVSPERAVGSASVQVLVRVSALVDYERQTAMAVQVVATDSVSQNFSVAMVTIHLRDINDHRPTFPQSLYVLTVPEHSATGSVVTDSIHATDPDTGAWGQITYSLLPGNGADLFQVDPVSGTVTVRNGELLDRESQAVYYLTLQATDGGNLSSSTTLQIHLLDINDNAPVVSGSYNIFVQEEEGNVSVTIQAHDNDEPGTNNSRLLFNLLPGPYSHNFSLDPDTGLLRNLGPLDREAIDPALEGRIVLTVLVSDCGEPVLGTKVNVTITVEDINDNLPIFNQSSYNFTVKEEDPGVLVGVVKAWDADQTEANNRISFSLSGSGANYFMIRGLVLGAGWAEGYLRLPPDVSLDYETQPVFNLTVSAENPDPQGGETIVDVCVNVKDVNDNPPTLDVASLRGIRVAENGSQHGQVAVVVASDVDTSAQLEIQLVNILCTKAGVDVGSLCWGWFSVAANGSVYINQSKAIDYEACDLVTLVVRACDLATDPGFQAYSNNGSLLITIEDVNDNAPYFLPENKTFVIIPELVLPNREVASVRARDDDSGNNGVILFSILRVDFISKDGATIPFQGVFSIFTSSEADVFAGSIQPVTSLDSTLQGTYQVTVQARDRPSLGPFLEATTTLNLFTVDQSYRSRLQFSTPKEEVGANRQAINAALTQATRTTVYIVDIQDIDSAARARPHSYLDAYFVFPNGSALTLDELSVMIRNDQDSLTQLLQLGLVVLGSQESQESDLSKQLISTVPRARDPPV
notes: protocadherin-24 (PCDH24, also CDHR2), human, full-length extracellular domain EC1 to MAD10; DNA cloned with the signal peptide, protein secreted; numbers count on: the mature protein; linker between the PCDH24 fragment and the Fc tag in the CMV vector; also called Fc-tagged full-length hs PCDH24 extracellular domain; human protocadherin-24; not shown: Fc, C-terminal, kept
B1: binds [2].

B2: hs PCDH24 EC1-2 (mammalian-produced, form II crystal) (domain or fragment, human)
chain: NVAPKFLANMTSVILPEDLPVGAQAFWLVAEDQDNDPLTYGMSGPNAYFFAVTPKTGEVKLASALDYETLYTFKVTISVSDPYIQVQREMLVIVEDRNDNAPVFQNTAFSTSINETLPVGSVVFSVLAVDKDMGSAGMVVYSIEKVIPSTGDSEHLFRILANGSIVLNGSLSYNNKSAFYQLELKACDLGGMYHNTFTIQCSLPVFLSISVVDQPDLDTVPRARDPPVGG
modifications: N-linked glycosylation at N9
notes: protocadherin-24 (PCDH24, also CDHR2), human, repeats EC1-2; DNA cloned with the signal peptide in a CMV vector, protein secreted; the structure includes residues N1 to D218; numbers count on: the mature protein; The range is that of the residues in the structure; The crystallised sample also held mammalian-produced hs CDHR5 EC1-2, which is not in the structure; also called Hs PCDH24 EC1-2 II; …
B2: binds [3].

From publication PMC8691648, “Heterophilic and homophilic cadherin interactions in intestinal intermicrovillar links are species dependent” (PLoS Biology, 2021)
